According to the DeepSol protein solubility set:

Test: soluble on expression in E. coli; label from the status in PepcDB or PDB records

Sequence: MGSDKIHHHHHHENLYFQGLLPKYNILTEDQVQKIHENTMKILEEIGIEFEYEPALEVFRREGQKVEGKRVYLTREFVESKLKSAPAEFTLHARNPENNVVIGGDNIVFMPGYGAPFIYELDGSRRKTTLQDYENFAKLAGASKNMHLSGGTMAEPQDIPDGVRHLQMLYSSIKNSDKCFMGSAEGKERAEDSVEIAAILFGGKDVIKEKPVLVSLINSLTPLKYDERMLGALMAYAEAGQAVIIASLVMAGSTGPASLAGTLSLQNAEVLAGISLAQSINPGTPVIYGSTSALSDMRSGSLSIGSPECALFISASAQLARFYGVPSRSGGGLNDSKTVDAQAGYESMMTLMAANLTGVNFVLHTAGILQYFMAMSYEKFIMDDEIAGMLLHYMKGYTFDEDGMAFDVIEKVGPGGHFLTQKHTRKNHKREFYTPTLSDRSAYDTWAKEKLETKQRAHARWQQILANYVPPALDPEIDAKLQAFIAQRGKEVGEE
- soluble on expression in E. coli: soluble

Sequence: MKHHHHHHGKAAGVTLGEVWKRQLNMLGKQEFERYKVSDITEVDRTAARRYLKEGRTDVGISVSRGAAKIRWLHERGYLRITGRVLDLGCGRGGWSYYAAAQKEVMSVKGYTLGIEGHEKPIHMQTLGWNIVKFKDKSNVFTMPTEPSDTLLCDIGESSSNPLVERDRTMKVLENFERWKHVNTENFCVKVLAPYHPDVIEKLERLQLRFGGGIVRVPFSRNSTHEMYYISGARNNITHMVNTTSRSLLRRMTRPSGKAIIEGDVFLPTGTRSVASEAGTIDHEALKLRVDQIKAEYSKT
- soluble on expression in E. coli: soluble

Sequence: MAHHHHHHMKDIINSDFEDNKDERVIIVDENNEFQELKARKIMRMENLWHRSTSIFVFTKIGEEYFIYVHKRSKVKDYCPSYYSIGFGGVVSENEDMLGNAVKELEEESGIKKSPEQLFDLGVVKCDTECSRSFVGSYVSLTLGKPMPFDGVRPLRIFACSSGNFTLLLIPHAAFFRAVTPSPTGCLHRPRLPDHPPAE
- soluble on expression in E. coli: soluble

Sequence: MGSDKIHHHHHHMRNSNLSKKPFIITIASTKGGSAKSTNAANIGAFCADHGLKTLLIDTDTQPTLSAYFALNYVAPGGIHEFLTYQDVEPSHIISKTTLSNLDLIQSNDPTNNVSQMLRNAPDGAIRFSFLLKKLKGYDVIIVDTRGTRDITVDMSVLAADLLFCPILPHILSAKEFIRGTMGMYQELQTFEAFGFSLPPLKAVPNCVDHTNDVKFVLGHLKQLFEQNLSADKTLLDFHIPNKVAYREAATYSLPVYRHSKAEYVVIQALCMHLLPQFAHQFEQGLSGHLGGHNV
- soluble on expression in E. coli: not soluble

Sequence: MVEADHPGKLFIGGLNRETNEKMLKAVFGKHGPISEVLLIKDRTSKSRGFAFITFENPADAKNAAKDMNGTSLHGKAIKVEQAKKPSFQSGGRRRPPASSRNRSPSGSLRSARGSSGGTRGWLPSHEGHLDDGGYTPDLKMSYSRGLIPVKRGPSSRSGGPPPKKSAPSAVARSNSWMGSQGPMSQRRENYGVPPRRATISSWRNDRMSTRHDGYATNDGNHPSCQETRDYAPPSRGYAYRDNGHSNRDEHSSRGYRNHRSSRETRDYAPPSRGHAYRDYGHSRRDESYSRGYRNHRSSRETREYAPPSRGHGYRDYGHSRRHESYSRGYRNHPSSRETRDYAPPHRDYAYRDYGHSSWDEHSSRGYSYHDGYGEALGRDHSEHLSGSSYRDALQRYGTSHGAPPARGPRMSYGGSTCHAYSNTRDRYGRSWESYSSCGDFHYCDREHVCRKDQRNPPSLGRVLPDPREAYGSSSYVASIVDGGESRSEKGDSSRY
- soluble on expression in E. coli: soluble

Sequence: MGSDKIHHHHHHMSDIESLGEAAGLFEEPEDFLPPPPKPHFAEYQRSHITKESKSDVKDIKLRLVGTSPLWGHLLWNAGIYTANHLDSHPELIKGKTVLELGAAAALPSVICALNGAQMVVSTDYPDPDLMQNIDYNIKSNVPEDFNNVSTEGYIWGNDYSPLLAHIEKIGNNNGKFDLIILSDLVFNHTEHHKLLQTTKDLLAEKGQALVVFSPHRPKLLEKDLEFFELAKNEFHLVPQLIEMVNWKPMFDEDEETIEVRSRVYAYYLTHEK
- soluble on expression in E. coli: not soluble

Sequence: MKDKVYKRPVSILVVIYAQDTKRVLMLQRRDDPDFWQSVTGSVEEGETAPQAAMREVKEEVTIDVVAEQLTLIDCQRTVEFEIFSHLRHRYAPGVTRNTESWFCLALPHERQIVFTEHLAYKWLDAPAAAALTKSWSNRQAIEQFVINAA
- soluble on expression in E. coli: soluble

Sequence: MGSDKIHHHHHHMKTLKFKLYQHKRNRHLKRIINAAGVIYNHCIALHKRYYRMWGNHLSCAKLQSHIAKLRKRNLFWQSLGSQAVQDICQRIEKAYQLFFKHNKKGVRPPGFKKVKKYKSFTLKQAGYKFLGSNRVKIGHRVYQFWKSRDIEGTVKTLTIKRTPLGELFMVVVVDNVSQAEIEVKTGKIAGFDFGLKTFLTCSDGTKIESPQFFKQSLNAIKKASRQHSKKLKSSSNRERARKNLVRKYEDISHRRRDWFWKLAHELTDKFDILCFETLNLKGMQRLWGRKISDLAFGEFLQILKWIAKKKNKLVVFIDQWYPSTKTCSGCGHVLEELDLSIREWRCPSCQSVNGRDENASKVICAVGASTVGLGDVSRYETAIAV
- soluble on expression in E. coli: not soluble

Sequence: MQAYRGTGKTSQLISQKKPISILILGVDQGIEGRHDRGNSDTMILATMNPEKKEATMTSIPRDLLADIKGDGRGEGKYYMFRANSAYQVGGSKGATRTVKALLNTPVNYYMEVNMKALESMVEALGGVDVNVPFTFTYHTHFRKGKQHLNGKEALDYVRMRKEDPKGDYGRQMRQRQVINDIVRKGMSVNSITNYRKILKVFAKYVKTNLTFDDMLSIAMNYRGCTQNIKSGYIQGHNVWIGAAAMQVASTKELQRVSDLVRSSLGLKQEKLEHHHHHH
- soluble on expression in E. coli: soluble

Sequence: MPMSSLPAAILSHMTAINNVPPPPLHSIPNLKKSKHINYGQLNALCHIRGQHSRSMSNILSAHDTFMKQYPKVFLHQKPRLPKLFKQEEQRELNEGKEESQHQQPDDSNNIAVHVQRAHGGHILYRPKRATEKFEEFLAILKKLPIHRTPYEHKTVWKFLKTIPDLTFQLNDKHLKTLSKTVFSETWLKGSTVVANDGFYVILKGLARPQTNVYKNLIEGSDSPDSFISQSFHSFIWSEEFKNSTLAEMYLPSYDSMLSKWSTFGTLEVMPQNESETQMFSVVTEDDCEILKIPAKGYAKIKEEKIKLENMQKLKLIRMCPYYEEWPTLSIYELIALLKWKKFPPGHVIVESGNIISFVGYINSGCCNIYRSIIGFVKLRSNKVKRSQKLVYMGKLKEKESFGEISVLLQVPFTCTIITKKEVEMAIIEDKDLFVA
- soluble on expression in E. coli: soluble

Sequence: GYQALEKYSRDLTALARAGKLDPVIGRDTEIRRAIQILSRRTKNNPILLGDPGVGKTAIVEGLAIKIVQGDVPDSLKGRKLVSLDLSSLIAGAKYRGDFEERLKSILKEVQDAEGQVVMFIDEIHTVVGAGAVAEGALDAGNILKPMLARGELRCIGATTVSEYRQFIEKDKALERRFQQILVEQPS
- soluble on expression in E. coli: soluble

Sequence: MESPNMRKRLIEMESSLEVKKTATTVKQEPLETSSPLLASMISTAPNPPPTSPHALNYLTLLAAFRQFLHGYIQAGGDENLANTLGNYVAALPMPPNSLNPIGPLNAPKSPFKQQQKFHSIIKAVKREPVSEPAQNAGSGDSSVTLSSALGEDAVPQNRGSCTSMKPVPRFVMLPVVAAQSASPSASGPTSEIQQLREAAFGRYKNVLCVICNEWICSRNRKNHIEAHLNYRPYKCSACSYARRREIFVDQHIRTQHKGVEGVVMLSDVDLHVAMEVDRLAEECVTRTRKIIDTMQEKKDGDFGENKDFDEKALQMMLAEEAENKVVVIESVSQVRPKVANYHRRQRTKVLKKIYDTDVAKQTELKIVKDEEGGVPTMSIKLEEGFEINLEDLMKMVGAGSSITDSNEPGPSEIKKELAEV
- soluble on expression in E. coli: not soluble

Sequence: MSLGSNKTIIINLNNLEHNLNLIKNKIGEKEIVATLKGDAYGHGLINIFKFLKSKNINYFGLSNIEDAKTLKKIDKNIKILMYIKVDKKEIKNLIKFELVPFVSDFEYLFLIEKECALQKNKIKVHLKIDIGMNRYGIKIDDALEIATYIQNSKFLELEGICSHLPSIENFKTTQKQIEQFLFFLETLKQKNIHPKFVHISNSGHIINYKLNPQFNMVRPGLILYGYCQSLKNKKPALNFKPVLSLFSKVIFIKNVKKGEKISYSGIFQAKEDMKIGIIPIGYFDGIPQNISNDFYFLINNKKCKIRGKVCMNLTIVEIPKDLKVKTGSKVEIVSEKLSIDEMSKFSKRSHYELLCNIGKYEKRKYLDEGHHHITTDPNSSSVDKLAAALEHHHHHH
- soluble on expression in E. coli: soluble

Sequence: SADWARAQSPGAVEEILDRENKRMADSLASKVTRLKSLALDIDRDAEDQNRYLDGMVRAHGVRVSVPCPSTTCCRACSVSFSTGAGGWSNHHFCVILLGFLP
- soluble on expression in E. coli: soluble

Sequence: MGSDKIHHHHHHMSIEFSRWPNNYMMSYQVTKALGLASLGATDVTEIYEACKKIDPNDKETWHREWLITAETLERHGKEAEAVGNWYTARNCYIRACNYNRIAEYTVMDDDNEKIRIFRKVNELFEAAGKYFDVKPEKIQVDYEDVKLDGYFFSPSWIKGPKPTILALNGGDEWSIENYFWLGPAFISCGYNFMVYDQPGTGLSMYEKGKGRRADSEAFHSRAIDFLLTRPEVDPNKIIVHGESFAAYDSLRFASFDHRIAAVISDGGTHAFDWEAMLKWMPPSLAGHGMRILGAKSLDDFAENPRFAYNLEGVLHQIECPLLVMHGAEEILVQPNPLTQALKNYEQAGSKNKTFFPIEDRRIGGLEHCQVDNINVLHEVVLNWLCSIGLGPFAPRPSDC
- soluble on expression in E. coli: not soluble

Sequence: MARQKDTFYFEGFRRSADYACQAAKLLSEVMHDFNPGQLRERMDSMHAIEKSADEVRHDMMDELVTAFITPFDREDIDELGHVLDDVTDSIEGVLNRMYYDNVTDMRDDAVQMSDMVVRATESICELVNELPRFRHSKTLRELVFAINTIETDADHLFIESMRTLHTTCTDPLQVFAWHDVYRHLEQCSDDCERVANTIDSIVMKNSLEHHHHHH
- soluble on expression in E. coli: soluble

Sequence: MDHDTEVIVKDFNSILEELTFNSRPIITTLTKLAEENISCAQYFVDAIESRIEKCMPKQKLYAFYALDSICKNVGSPYTIYFSRNLFNLYKRTYLLVDNTTRTKLINMFKLWLNPNDTGLPLFEGSALEKIEQFLIKASAAALE
- soluble on expression in E. coli: soluble

Sequence: MIEIEINNAQEITSALERLAQATAHRAPLMRSIAGTMESAVAQNFEVGGRPAWKKLKIRQGTPLVDTENLMASITSEYNNNEAIVGTNEPYAAIHQFGGKAGRGRKVAIPARPFLILTPQDEADILEDIQDYFQLLIK
- soluble on expression in E. coli: not soluble

Sequence: MFFRCCMKIVQIIGGLGNQMFQFAFYLALKEKYVNVKLDTSSFGAYTHNGFELDKVFHVEYLKASIRERIKLSYQGSEIWIRVLRKLLKRKKTEYVEPYLCFDENAISLSCDKYYIGYWQSYKYFTNIEAAIRGQFHFSKVLSDKNEFIKKQMQNSNSVSLHVRLGDYVNNPAYSNICTSAYYNKAINIIQSKVSEPKFFVFSDDTVWCKDHLKIPNCHIIDWNNKEESYWDMCLMTYCKHNIIANSSFSWWGAWLNTNPERIVIAPGKWINDDRVQVSDIIPSDWICVLEHHHHHH
- soluble on expression in E. coli: not soluble

Sequence: MIAITGASGQLGRLVIAQLLEKVPASDIVALVRDVNKVADLSAKGVQVKAADYNQPEALAFALQGVDKVLLISSSEVGQRAAQHRNVIEAAVKAGVKLVAYTSLLHADKSPLALAEEHRQTEALLKDSGLPHVLLRNGWYTENYAASIPAALEHGVFIGSAGEGKITSATREDFAAAAVAVLTQEGQAGKVYELAGDEPYTLVELAAEISKQSGKSIGYQNLSGAEFTAALVSAGLPDVFAQIIADSDVGASKGGLFDGGKHLSQLIGRPTTPLSAVVKATLKLEHHHHHH
- soluble on expression in E. coli: not soluble

Sequence: MSLSLPPPRRVVLTTPTHFDVEYVINPHMSENVGAVNTDVAWQQWKALRAAYTALDHTPVLVNGQSGLPDMVFCANQTLPFYDPASDSKGVVLSRMHSEQRADEVPYYARFFEEEGYAVDTLPEDLDADFEGMGDALWHPGHHLLWGGYGYRTSPEAYEALGDLLDVPIVALRLVDPDYYHLDTCLCPLDARHALVAPEAFDDAGRALIDALFETVIEVPDHEARHQFACNAHCPDGAHVLIQEGCEGTNAQLRNHDFVPVELDTSEFMKSGGSVFCMKQMIWEGHHHHHH
- soluble on expression in E. coli: not soluble
